Experimental data: IntAct's records for PubMed 32296183

B1: Catenin alpha-3 (Homo sapiens), Q9UI47-2 (parent)
chain: MSAETPITLNIDPQDLQVQTFTVEKLLEPLIIQVTTLVNCPQNPSSRKKGRSKRASVLLASVEEATWNLLDKGEKIAQEATVLKDELTASLEEVRKESEALKVSAERFTDDPCFLPKREAVVQAARALLAAVTRLLILADMIDVMCLLQHVSAFQRTFESLKNVANKSDLQKTYQKLGKELENLDYLAFKRQQDLKSPNQRDEIAGARASLKENSPLLHSICSACLEHSDVASLKASKDTVCEEIQNALNVISNASQGIQNMTTPPEPQAATLGSALDELENLIVLNPLTVTEEEIRPSLEKRLEAIISGAALLADSSCTRDLHRERIIAECNAIRQALQDLLSEYMNNAGKKERSNTLNIALDNMCKKTRDLRRQLRKAIIDHVSDSFLDTTVPLLVLIEAAKNGREKEIKEYAAIFHEHTSRLVEVANLACSMSTNEDGIKIVKIAANHLETLCPQIINAALALAARPKSQAVKNTMEMYKRTWENHIHVLTEAVDDITSIDDFLAVSGMFLFF
partner: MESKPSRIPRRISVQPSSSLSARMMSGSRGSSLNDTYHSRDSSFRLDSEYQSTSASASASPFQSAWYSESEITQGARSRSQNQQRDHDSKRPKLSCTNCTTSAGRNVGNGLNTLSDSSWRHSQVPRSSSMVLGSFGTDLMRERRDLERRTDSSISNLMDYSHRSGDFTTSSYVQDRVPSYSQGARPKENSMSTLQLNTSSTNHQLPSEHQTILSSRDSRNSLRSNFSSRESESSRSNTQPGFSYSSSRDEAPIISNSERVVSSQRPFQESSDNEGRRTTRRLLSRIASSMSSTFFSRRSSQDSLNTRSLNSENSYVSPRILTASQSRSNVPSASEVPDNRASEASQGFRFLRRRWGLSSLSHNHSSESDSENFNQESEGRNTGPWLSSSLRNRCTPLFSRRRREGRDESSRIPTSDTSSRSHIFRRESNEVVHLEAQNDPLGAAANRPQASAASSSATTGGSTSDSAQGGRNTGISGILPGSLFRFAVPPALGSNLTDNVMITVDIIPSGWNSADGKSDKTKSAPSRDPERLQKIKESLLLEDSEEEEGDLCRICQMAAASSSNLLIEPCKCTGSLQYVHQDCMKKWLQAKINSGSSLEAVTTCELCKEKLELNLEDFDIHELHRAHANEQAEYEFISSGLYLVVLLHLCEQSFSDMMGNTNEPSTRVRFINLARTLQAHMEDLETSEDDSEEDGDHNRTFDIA
B2: Golgi SNAP receptor complex member 2 (Homo sapiens), O14653 (parent)
chain: MDPLFQQTHKQVHEIQSCMGRLETADKQSVHIVENEIQASIDQIFSRLERLEILSSKEPPNKRQNARLRVDQLKYDVQHLQTALRNFQHRRHAREQQERQREELLSRTFTTNDSDTTIPMDESLQFNSSLQKVHNGMDDLILDGHNILDGLRTQRLTLKGTQKKILDIANMLGLSNTVMRLIEKRAFQDKYFMIGGMLLTCVVMFLVVQYLT
partner: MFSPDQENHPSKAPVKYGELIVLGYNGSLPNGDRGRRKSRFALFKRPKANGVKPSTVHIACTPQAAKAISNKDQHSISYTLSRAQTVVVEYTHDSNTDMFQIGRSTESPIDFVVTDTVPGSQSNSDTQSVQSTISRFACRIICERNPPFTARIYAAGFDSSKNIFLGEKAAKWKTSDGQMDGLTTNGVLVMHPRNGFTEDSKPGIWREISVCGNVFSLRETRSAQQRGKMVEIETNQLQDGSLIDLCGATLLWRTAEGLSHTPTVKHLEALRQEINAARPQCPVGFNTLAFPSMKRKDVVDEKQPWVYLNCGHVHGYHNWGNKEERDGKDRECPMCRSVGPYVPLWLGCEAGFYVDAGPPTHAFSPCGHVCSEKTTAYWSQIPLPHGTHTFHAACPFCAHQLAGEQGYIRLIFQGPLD
B3: Catenin alpha-3 (Homo sapiens), Q9UI47-2 (parent)
chain: B1 chain
partner: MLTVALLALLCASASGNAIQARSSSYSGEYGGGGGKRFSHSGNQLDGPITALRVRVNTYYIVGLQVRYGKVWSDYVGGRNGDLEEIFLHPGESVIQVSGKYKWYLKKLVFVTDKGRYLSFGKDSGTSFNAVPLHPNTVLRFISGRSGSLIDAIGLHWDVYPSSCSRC
B4: Catenin alpha-3 (Homo sapiens), Q9UI47-2 (parent)
chain: B1 chain
partner: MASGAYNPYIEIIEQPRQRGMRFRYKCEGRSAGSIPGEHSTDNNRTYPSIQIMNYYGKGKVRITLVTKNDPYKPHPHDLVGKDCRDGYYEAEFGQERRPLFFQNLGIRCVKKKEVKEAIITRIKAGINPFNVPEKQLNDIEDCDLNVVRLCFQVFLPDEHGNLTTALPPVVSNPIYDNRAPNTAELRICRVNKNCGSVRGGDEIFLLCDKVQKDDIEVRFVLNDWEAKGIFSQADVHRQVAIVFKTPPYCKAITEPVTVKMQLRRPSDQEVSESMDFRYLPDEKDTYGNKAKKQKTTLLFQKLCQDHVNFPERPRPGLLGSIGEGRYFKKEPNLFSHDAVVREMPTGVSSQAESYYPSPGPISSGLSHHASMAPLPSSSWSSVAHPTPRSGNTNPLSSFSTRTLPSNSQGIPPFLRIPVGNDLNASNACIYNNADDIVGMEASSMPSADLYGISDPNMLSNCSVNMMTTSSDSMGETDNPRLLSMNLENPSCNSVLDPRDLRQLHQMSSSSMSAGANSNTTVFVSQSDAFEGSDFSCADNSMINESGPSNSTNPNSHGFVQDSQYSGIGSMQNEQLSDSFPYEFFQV
B5: Catenin alpha-3 (Homo sapiens), Q9UI47-2 (parent)
chain: B1 chain
partner: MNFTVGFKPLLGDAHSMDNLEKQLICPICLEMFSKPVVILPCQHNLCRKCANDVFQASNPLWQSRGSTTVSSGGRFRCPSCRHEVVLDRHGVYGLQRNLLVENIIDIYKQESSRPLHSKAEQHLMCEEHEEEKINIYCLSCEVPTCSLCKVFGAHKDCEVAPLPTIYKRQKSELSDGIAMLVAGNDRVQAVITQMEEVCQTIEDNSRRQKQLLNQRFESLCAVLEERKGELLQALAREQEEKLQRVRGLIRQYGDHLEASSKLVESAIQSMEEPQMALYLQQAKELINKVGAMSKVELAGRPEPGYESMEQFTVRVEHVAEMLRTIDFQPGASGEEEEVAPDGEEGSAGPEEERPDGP
B6: Catenin alpha-3 (Homo sapiens), Q9UI47-2 (parent)
chain: B1 chain
partner: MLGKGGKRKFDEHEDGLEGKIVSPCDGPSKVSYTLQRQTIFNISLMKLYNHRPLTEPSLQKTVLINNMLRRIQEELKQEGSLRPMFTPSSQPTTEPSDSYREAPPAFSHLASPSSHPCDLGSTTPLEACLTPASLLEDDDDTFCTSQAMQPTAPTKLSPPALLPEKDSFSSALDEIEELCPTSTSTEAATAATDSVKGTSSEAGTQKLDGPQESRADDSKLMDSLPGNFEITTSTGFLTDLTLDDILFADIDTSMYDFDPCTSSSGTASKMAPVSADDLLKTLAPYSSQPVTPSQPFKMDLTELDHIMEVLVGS
B7: Catenin alpha-3 (Homo sapiens), Q9UI47-2 (parent)
chain: B1 chain
partner: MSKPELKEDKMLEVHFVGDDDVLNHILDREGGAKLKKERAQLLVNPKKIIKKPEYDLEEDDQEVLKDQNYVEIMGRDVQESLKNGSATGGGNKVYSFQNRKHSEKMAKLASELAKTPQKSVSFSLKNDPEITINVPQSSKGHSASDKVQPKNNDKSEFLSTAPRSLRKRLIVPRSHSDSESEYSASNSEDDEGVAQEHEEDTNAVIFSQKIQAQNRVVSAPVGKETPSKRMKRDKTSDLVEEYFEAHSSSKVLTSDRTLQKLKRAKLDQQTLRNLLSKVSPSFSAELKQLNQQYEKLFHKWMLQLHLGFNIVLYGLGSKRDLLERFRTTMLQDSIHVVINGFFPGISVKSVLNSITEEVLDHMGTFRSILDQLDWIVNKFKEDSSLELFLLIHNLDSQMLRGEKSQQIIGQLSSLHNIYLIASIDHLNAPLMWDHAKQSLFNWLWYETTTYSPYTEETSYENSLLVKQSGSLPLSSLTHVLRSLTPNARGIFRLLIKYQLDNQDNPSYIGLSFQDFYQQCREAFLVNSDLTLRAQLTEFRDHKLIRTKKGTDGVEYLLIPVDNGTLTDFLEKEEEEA
B8: Dolichol kinase (Homo sapiens), Q9UPQ8 (parent)
chain: MTRECPSPAPGPGAPLSGSVLAEAAVVFAVVLSIHATVWDRYSWCAVALAVQAFYVQYKWDRLLQQGSAVFQFRMSANSGLLPASMVMPLLGLVMKERCQTAGNPFFERFGIVVAATGMAVALFSSVLALGITRPVPTNTCVILGLAGGVIIYIMKHSLSVGEVIEVLEVLLIFVYLNMILLYLLPRCFTPGEALLVLGGISFVLNQLIKRSLTLVESQGDPVDFFLLVVVVGMVLMGIFFSTLFVFMDSGTWASSIFFHLMTCVLSLGVVLPWLHRLIRRNPLLWLLQFLFQTDTRIYLLAYWSLLATLACLVVLYQNAKRSSSESKKHQAPTIARKYFHLIVVATYIPGIIFDRPLLYVAATVCLAVFIFLEYVRYFRIKPLGHTLRSFLSLFLDERDSGPLILTHIYLLLGMSLPIWLIPRPCTQKGSLGGARALVPYAGVLAVGVGDTVASIFGSTMGEIRWPGTKKTFEGTMTSIFAQIISVALILIFDSGVDLNYSYAWILGSISTVSLLEAYTTQIDNLLLPLYLLILLMA
B9: Catenin alpha-3 (Homo sapiens), Q9UI47-2 (parent)
chain: B1 chain
partner: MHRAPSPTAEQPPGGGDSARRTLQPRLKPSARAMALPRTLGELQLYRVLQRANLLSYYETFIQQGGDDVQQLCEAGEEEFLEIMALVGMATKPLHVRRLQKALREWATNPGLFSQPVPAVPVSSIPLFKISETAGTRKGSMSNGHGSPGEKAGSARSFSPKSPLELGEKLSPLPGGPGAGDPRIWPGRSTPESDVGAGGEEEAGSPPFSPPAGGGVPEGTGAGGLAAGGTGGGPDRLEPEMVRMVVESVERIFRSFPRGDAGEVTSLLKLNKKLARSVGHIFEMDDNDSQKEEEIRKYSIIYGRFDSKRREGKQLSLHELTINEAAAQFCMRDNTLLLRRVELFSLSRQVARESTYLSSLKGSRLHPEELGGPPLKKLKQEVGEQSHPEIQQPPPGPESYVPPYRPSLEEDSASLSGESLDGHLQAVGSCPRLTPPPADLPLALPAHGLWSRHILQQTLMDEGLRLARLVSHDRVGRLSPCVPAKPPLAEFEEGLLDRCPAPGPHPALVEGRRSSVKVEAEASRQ
B10: Golgi SNAP receptor complex member 2 (Homo sapiens), O14653 (parent)
chain: B2 chain
partner: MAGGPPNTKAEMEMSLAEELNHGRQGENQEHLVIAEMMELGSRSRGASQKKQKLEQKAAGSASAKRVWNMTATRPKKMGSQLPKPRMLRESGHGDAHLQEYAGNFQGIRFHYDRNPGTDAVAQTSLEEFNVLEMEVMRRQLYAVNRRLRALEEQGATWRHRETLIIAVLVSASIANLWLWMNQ

Variants of: B1
Conditions: with marh7_human MARCHF7, Q9H992

Question: How did the “effect of a mutation on the interaction” value turn out when V94D was run?
Answer: with no effect

Variants of: B2
Conditions: with peli1_human PELI1, Q96FA3

Question: How did the “effect of a mutation on the interaction” value turn out when G144W was run?
Answer: disrupting interaction strength

Variants of: B3
Conditions: with zg16_human ZG16, O60844

Question: V94D was tested. Which “effect of a mutation on the interaction” value did it give?
Answer: disrupting interaction strength

Variants of: B4
Conditions: with REL

Question: For V94D, which “effect of a mutation on the interaction” value is on record?
Answer: with no effect

Variants of: B5
Conditions: with tri54_human TRIM54, Q9BYV2

Question: How did the “effect of a mutation on the interaction” value turn out when V94D was run?
Answer: disrupting interaction strength

Variants of: B6
Conditions: with srtd2_human SERTAD2, Q14140

Question: For V94D, which “effect of a mutation on the interaction” value is on record?
Answer: disrupting interaction strength

Variants of: B7
Conditions: with orc2_human ORC2, Q13416

Question: For V94D, which “effect of a mutation on the interaction” value is on record?
Answer: disrupting interaction strength

Variants of: B8
Conditions: with kca10_human KCNA10, Q16322
Sequence of kca10_human KCNA10, Q16322 (Q16322 whole entry): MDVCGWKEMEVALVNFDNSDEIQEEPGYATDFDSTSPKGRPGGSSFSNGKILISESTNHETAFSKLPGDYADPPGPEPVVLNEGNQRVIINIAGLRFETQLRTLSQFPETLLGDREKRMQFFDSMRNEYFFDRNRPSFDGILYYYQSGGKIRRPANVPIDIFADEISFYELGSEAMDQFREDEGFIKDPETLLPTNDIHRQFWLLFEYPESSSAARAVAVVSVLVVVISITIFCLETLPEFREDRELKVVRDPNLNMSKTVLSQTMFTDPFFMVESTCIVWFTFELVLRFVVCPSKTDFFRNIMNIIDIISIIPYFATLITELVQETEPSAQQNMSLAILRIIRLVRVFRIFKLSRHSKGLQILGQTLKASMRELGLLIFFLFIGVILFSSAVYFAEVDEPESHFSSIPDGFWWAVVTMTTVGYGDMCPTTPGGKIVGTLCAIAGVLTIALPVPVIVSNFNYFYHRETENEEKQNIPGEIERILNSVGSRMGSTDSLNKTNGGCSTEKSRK

Question: Y441S was tested. Which “effect of a mutation on the interaction” value did it give?
Answer: disrupting interaction strength

Variants of: B8
Conditions: with kcna6_human KCNA6, P17658
Sequence of kcna6_human KCNA6, P17658 (P17658 whole entry): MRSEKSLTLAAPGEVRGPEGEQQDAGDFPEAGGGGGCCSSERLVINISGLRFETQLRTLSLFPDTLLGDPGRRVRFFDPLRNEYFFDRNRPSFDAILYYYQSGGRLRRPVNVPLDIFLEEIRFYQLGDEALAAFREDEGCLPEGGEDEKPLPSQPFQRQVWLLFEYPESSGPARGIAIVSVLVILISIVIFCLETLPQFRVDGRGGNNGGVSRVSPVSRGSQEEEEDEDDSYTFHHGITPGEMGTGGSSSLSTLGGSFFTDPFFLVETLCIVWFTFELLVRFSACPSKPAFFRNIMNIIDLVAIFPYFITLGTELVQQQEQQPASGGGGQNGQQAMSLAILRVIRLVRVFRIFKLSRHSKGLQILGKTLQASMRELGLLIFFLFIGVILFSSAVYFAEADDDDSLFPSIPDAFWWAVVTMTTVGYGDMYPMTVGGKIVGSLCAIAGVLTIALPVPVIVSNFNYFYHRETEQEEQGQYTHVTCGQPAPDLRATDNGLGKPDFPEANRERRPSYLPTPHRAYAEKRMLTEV

Question: With Y441S as the variant, how does the “effect of a mutation on the interaction” value read?
Answer: disrupting interaction strength

Variants of: B8
Conditions: with eda_human EDA

Question: How did the “effect of a mutation on the interaction” value turn out when Y441S was run?
Answer: disrupting interaction strength

Variants of: B8
Conditions: with apbp2_human APPBP2, Q92624
Sequence of apbp2_human APPBP2, Q92624 (Q92624 whole entry): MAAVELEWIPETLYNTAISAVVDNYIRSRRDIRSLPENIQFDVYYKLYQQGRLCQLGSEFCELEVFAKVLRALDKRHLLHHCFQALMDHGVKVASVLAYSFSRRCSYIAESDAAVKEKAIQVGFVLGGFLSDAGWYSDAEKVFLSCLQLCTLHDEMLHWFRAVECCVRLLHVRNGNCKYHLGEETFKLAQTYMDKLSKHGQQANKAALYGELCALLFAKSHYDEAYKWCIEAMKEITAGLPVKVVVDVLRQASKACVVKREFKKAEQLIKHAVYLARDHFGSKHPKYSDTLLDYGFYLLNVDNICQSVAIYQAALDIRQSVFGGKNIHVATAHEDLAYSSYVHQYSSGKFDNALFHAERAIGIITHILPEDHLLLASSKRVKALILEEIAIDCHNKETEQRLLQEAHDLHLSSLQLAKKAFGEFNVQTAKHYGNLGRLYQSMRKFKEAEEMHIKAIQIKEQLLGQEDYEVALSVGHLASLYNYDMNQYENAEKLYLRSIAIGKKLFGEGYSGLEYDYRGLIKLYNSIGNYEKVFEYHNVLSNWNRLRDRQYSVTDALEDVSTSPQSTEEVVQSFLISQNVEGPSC

Question: Which “effect of a mutation on the interaction” value does the source give for Y441S here?
Answer: disrupting interaction strength

Variants of: B8
Conditions: with kcna1_human KCNA1, Q09470
Sequence of kcna1_human KCNA1, Q09470 (Q09470 whole entry): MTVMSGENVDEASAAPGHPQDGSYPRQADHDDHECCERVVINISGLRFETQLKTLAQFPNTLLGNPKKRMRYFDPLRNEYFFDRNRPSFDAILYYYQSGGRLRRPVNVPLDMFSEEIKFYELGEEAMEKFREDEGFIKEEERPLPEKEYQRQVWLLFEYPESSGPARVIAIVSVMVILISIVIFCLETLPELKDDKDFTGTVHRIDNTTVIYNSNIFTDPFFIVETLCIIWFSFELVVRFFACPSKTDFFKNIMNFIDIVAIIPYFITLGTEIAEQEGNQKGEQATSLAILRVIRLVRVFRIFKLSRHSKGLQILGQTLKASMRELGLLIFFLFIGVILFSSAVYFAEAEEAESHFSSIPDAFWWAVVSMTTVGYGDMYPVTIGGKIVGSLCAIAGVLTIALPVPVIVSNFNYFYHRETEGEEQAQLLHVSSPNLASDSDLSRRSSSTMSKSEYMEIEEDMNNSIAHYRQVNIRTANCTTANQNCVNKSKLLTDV

Question: Y441S was tested. Which “effect of a mutation on the interaction” value did it give?
Answer: disrupting interaction strength

Variants of: B8
Conditions: with ylat2_human SLC7A6, Q92536
Sequence of ylat2_human SLC7A6, Q92536 (Q92536 whole entry): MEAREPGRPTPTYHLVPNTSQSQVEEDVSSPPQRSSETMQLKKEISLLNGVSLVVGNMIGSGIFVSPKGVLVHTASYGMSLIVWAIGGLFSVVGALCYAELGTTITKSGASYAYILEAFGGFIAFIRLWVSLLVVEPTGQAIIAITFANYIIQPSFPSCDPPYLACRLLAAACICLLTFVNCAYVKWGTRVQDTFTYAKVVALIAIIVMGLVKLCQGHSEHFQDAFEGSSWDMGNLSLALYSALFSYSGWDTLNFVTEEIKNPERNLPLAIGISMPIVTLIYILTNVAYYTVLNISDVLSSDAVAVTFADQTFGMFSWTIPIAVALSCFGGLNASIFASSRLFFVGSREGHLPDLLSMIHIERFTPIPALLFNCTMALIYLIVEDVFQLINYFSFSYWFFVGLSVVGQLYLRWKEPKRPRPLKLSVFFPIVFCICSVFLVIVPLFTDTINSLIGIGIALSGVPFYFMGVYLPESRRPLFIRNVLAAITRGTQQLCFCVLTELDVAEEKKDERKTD

Question: How did the “effect of a mutation on the interaction” value turn out when Y441S was run?
Answer: with no effect

Variants of: B8
Conditions: with kca10_human KCNA10, Q16322
Remark: another data set of the same source

Question: For Y441S, which “effect of a mutation on the interaction” value is on record?
Answer: with no effect

Variants of: B8
Conditions: with kcna1_human KCNA1, Q09470
Remark: another data set of the same source

Question: For Y441S, which “effect of a mutation on the interaction” value is on record?
Answer: with no effect

Variants of: B8
Conditions: with synpr_human SYNPR

Question: With Y441S as the variant, how does the “effect of a mutation on the interaction” value read?
Answer: disrupting interaction strength

Variants of: B8
Conditions: with tm45b_human TMEM45B

Question: Y441S was tested. Which “effect of a mutation on the interaction” value did it give?
Answer: disrupting interaction strength

Variants of: B8
Conditions: with cd79a_human CD79A

Question: Y441S was tested. Which “effect of a mutation on the interaction” value did it give?
Answer: with no effect

Variants of: B8
Conditions: with cxa8_human GJA8, P48165
Sequence of cxa8_human GJA8, P48165 (P48165 whole entry): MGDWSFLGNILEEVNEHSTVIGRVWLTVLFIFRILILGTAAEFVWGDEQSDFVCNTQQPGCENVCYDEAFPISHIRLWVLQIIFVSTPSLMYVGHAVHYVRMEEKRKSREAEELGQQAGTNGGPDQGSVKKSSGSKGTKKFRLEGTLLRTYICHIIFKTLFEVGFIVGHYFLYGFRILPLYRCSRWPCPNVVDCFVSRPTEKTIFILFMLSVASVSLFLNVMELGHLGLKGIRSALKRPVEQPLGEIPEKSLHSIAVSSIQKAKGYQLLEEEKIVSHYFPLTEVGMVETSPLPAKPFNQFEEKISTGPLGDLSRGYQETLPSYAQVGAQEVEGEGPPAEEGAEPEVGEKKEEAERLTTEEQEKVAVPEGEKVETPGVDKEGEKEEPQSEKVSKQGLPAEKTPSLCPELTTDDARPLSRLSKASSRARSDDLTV

Question: With Y441S as the variant, how does the “effect of a mutation on the interaction” value read?
Answer: with no effect

Variants of: B9
Conditions: with nab2_human NAB2, Q15742

Question: With V94D as the variant, how does the “effect of a mutation on the interaction” value read?
Answer: disrupting interaction strength

Variants of: B10
Conditions: with fate1_human FATE1, Q969F0

Question: With G144W as the variant, how does the “effect of a mutation on the interaction” value read?
Answer: with no effect
